The results in this text go back to PMC2990581, “Molecular imaging of glioblastoma multiforme using anti-insulin-like growth factor-binding protein-7 single-domain antibodies” (British Journal of Cancer, 2010).

A word on the Kd: it is a measure of binding affinity in units of concentration. What is called koff is a measure of how fast the partners let go of each other.

The target in assay [1] is IGFBP7 in mouse vessels of orthotopic U87MG.EGFRvIII glioblastoma (Mus musculus, UniProt Q61581). The experiment in a line: cell-based or functional assay.
For assay [2], the target named is T1, IGFBP7 in human glioblastoma multiforme tissue (Homo sapiens, UniProt Q16270).
T1 construct: source: endogenous, frozen human GBM tissue sections
The experiment in a line: immunostaining of cells or tissue; frozen human or mouse brain tumour sections fixed in methanol; sdAb 4.43 (1:100 of 1 mg/ml) for 3 h at RT; detected with anti-c-myc antibody and alexa 647 secondary. Particulars: one partner purified.

Assay [3] concerns the target T2, recombinant human insulin-like growth factor-binding protein 7 (IGFBP7), R&D Systems (human) (UniProt Q16270).
T2 sequence: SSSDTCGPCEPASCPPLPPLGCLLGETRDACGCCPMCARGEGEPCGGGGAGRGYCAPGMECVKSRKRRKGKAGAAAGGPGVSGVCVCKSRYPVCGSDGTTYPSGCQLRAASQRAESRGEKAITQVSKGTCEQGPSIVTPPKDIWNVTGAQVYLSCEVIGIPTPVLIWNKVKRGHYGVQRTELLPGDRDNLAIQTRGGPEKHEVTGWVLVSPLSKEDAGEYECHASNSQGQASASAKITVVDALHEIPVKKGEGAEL
The experiment in a line: SPR; Biacore 3000; ~1400 RU recombinant human IGFBP7 amine-coupled on a CM5 chip, ovalbumin as reference; sdAb flowed at 25-200 nM; 25°C; 10 mM HEPES pH 7.4, 150 mM NaCl, 3 mM EDTA, 0.005% P20; 40 μl/min; 1:1 kinetic fit of the 25 nM data, steady-state affinity model and Scatchard plot of the equilibrium data. (In general: In SPR one partner is held on a chip, and binding of the other changes the refractive index at the surface.)

Chain of IGFBP7 in mouse vessels of orthotopic U87MG.EGFRvIII glioblastoma (Q61581 26-281): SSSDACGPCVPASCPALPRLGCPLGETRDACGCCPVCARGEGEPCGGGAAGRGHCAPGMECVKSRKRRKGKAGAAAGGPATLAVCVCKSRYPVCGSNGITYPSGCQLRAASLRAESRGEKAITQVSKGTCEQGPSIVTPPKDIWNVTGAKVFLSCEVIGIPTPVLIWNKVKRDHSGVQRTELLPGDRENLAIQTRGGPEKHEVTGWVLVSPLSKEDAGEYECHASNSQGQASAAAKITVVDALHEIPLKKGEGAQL

B1: anti-IGFBP7 single-domain antibody (sdAb) 4.43 (VHH)
VHH: QVKLEESGGGLVQAGGSLRLSCAASGRTSRRYAMGWFRQAPGKEREFVAGISRSGDGTHYAYSVKGRFTISRDNAANTVELQMNSLKPEDTAVYFCAAARTAFYYYGNDYNYWGQGTQVTVSS
notes: VHH isolated from an immune llama phage display library; For in vivo imaging the same sdAb was labelled with Cy5.5 succinimidyl ester (dye/antibody ratio of one) or conjugated to PEGylated Fe3O4 nanoparticles; also called anti-IGFBP7 sdAb; source: expressed periplasmically (vector pSJF2), purified by IMAC; not shown: c-Myc, C-terminal, kept
Consider B1, for which, in assay [1], the “brain tumour fluorescence signal by in vivo optical imaging 24 h after i.v. injection of 50 μg anti-IGFBP7 sdAb-Cy5.5, against negative control (NC) sdAb-Cy5.5” value worked out at 6 fold. Besides, the binding result in assay [2] is “binds”. Further, in assay [3], the Kd is 20 nM and the koff came out at 0.0013 s⁻¹.
